First the molecules themselves.
B1: LINE1-full (parent)
chain: UACGUAGGUGGUUUUCCCCUGAUAGUGCUAAGGGGGCCUGGAAGUUUGGACUGGGCAGAGCUCAACACAGCGUGGCAAAGUGGCUGUGGCUAGACUGCCUCUCUGGAUUCCUCGUCACUCAGCAGGGCAUCUCUGAGAGAAAUGCC

Variants of B1 are the subject of this series. The experiment in a line: self-cleavage, relative activity (ratio to wild type); higher = more cleavage; in vitro, sequencing; the parent is a self-cleaving ribozyme.
On to U9C G33A, for which the self-cleavage is 1.01. In the case of G8A U87C, the self-cleavage came out at 0.19.

Turning to U9A A43U, the self-cleavage is 0.61.

For U9A A43G, the self-cleavage was 1.1.

For U9C A78U, the self-cleavage worked out at 2.65. The result for U9C A78C reads 1.5. The value for U9A A94U was 0.39; that for G7U U62C was 0.04; that for A6U A50G was 0.72. The value for A6U A78G was 0.77; that for U9A U96C was 0.19.

U9A A65G: the self-cleavage is 0.21. The result for G8U C145U reads 2.38; that for G8C, 1.66. Regarding G8U, the self-cleavage was found to be 1.39.

Turning to G8A, the self-cleavage worked out at 1.45.

As for U9A, the self-cleavage turned out to be 1.05. The value for U9C was 1.22; that for A6U G127A was 0.59. The result for G8A C37A reads 0.87; that for G8U U109C, 0.67. Take A6G U87C: the self-cleavage was found to be 0.15. The result for U9C C95U reads 0.19. The result for G7A U73A reads 1.31; that for G8A A117C, 1.03; that for A6G U134G, 0.8. As to U9A G40A, the self-cleavage came out at 1.

In the case of U9C A59G, the self-cleavage worked out at 0.11. The value for U9A A79U was 1.59; that for U9A A79G was 1.01; that for U9A G60U was 0. The value for U9A G60A was 0.1. The value for G8A G70A was 0.17; that for G7A U46A was 1.23; that for U9A G54A was 0.65.

As for G7A A30G, the self-cleavage is 0.84. Take A6G U104A: the self-cleavage came out at 0.73. The value for G7A U39C was 0.83; that for A6U A129U was 1.52; that for G7U A79G was 0.87. The result for U9C A43U reads 0.77; that for A6U U102C, 0.68; that for U9A U12A, 0.37. The result for U9A C37G reads 0.82; that for U9A A124C, 1.74.

As for U9A A124G, the self-cleavage worked out at 1.02.

With U9C G60C, the self-cleavage amounted to 0.07. The value for G8A U91C was 0.69; that for A6U A79G was 0.8. Regarding G8U U9A, the self-cleavage was 2.01. Turning to A6G U73C, the self-cleavage was found to be 1.34.

As to A6G U119A, the self-cleavage was 1.52. The result for A6U A141G reads 0.94. As for A6U A107G, the self-cleavage was found to be 1.05. In the case of G7U U46C, the self-cleavage amounted to 0.47. The value for U9C C19U was 1.65; that for U9C C19A was 1.55; that for U9C C56U was 0.37. The value for U9C G53A was 1.2. The result for G8U U29C reads 1.99. Take G8A A124G: the self-cleavage was 1.04.

G8A U85C: the self-cleavage is 0.25. The value for G7C A142C was 1.1; that for U9A A24G was 0.93; that for U9A A92G was 0.15. Regarding U9C A138U, the self-cleavage worked out at 1.92.

Regarding U9A U119C, the self-cleavage was found to be 1.04. The value for U9A U130A was 1.23; that for U9A U130C was 1.07. The result for U9A A22G reads 1.53; that for A6U C56U, 0.21; that for A6G U52A, 0.43.

As to G7A U112C, the self-cleavage worked out at 1.22. For G8A A138G, the self-cleavage is 2.47. The result for G8U A129G reads 0.32.

Consider U9C A24G, for which the self-cleavage was determined as 1.04. The result for A6U G75U reads 0.53; that for U9A C116U, 0.95. The result for G8A U115C reads 1.33; that for G7U A141G, 1.62; that for G8A U109C, 1.21.

For the variant A6G U20A, the self-cleavage worked out at 1.05. The value for U9A C120U was 1.12; that for U9C A50U was 1.38. Turning to U9C A50G, the self-cleavage is 1.

U9A G33U: the self-cleavage was 1.6.

In the case of U9A U45G, the self-cleavage was determined as 1.05. The value for G8A C61U was 0.06; that for A6U A42G was 0.58; that for U9A C98U was 0.28. Regarding U9C G11A, the self-cleavage came to 1.07. The value for A6U U104G was 0.48; that for A6U U104A was 1.16; that for U9A C38A was 1.26. The result for U9A G88A reads 0.12; that for G8U U115C, 1.93; that for U9A U20C, 0.88. The value for G8A U15C was 1.97; that for A6U A138G was 1.15; that for U9C A124G was 1.15. Take U9C A124C: the self-cleavage was determined as 2.53. The value for U9C G55A was 0.48; that for U9C G55U was 0.37; that for A6U U143G was 1.12. The value for G8A G44A was 1.08. The result for G7C U85A reads 0.2. With G7A A79G, the self-cleavage stood at 0.61. The value for G7U A138G was 1.31; that for G8A A43G was 1.08; that for G8U G35A was 1.41. The result for A6U U39A reads 1.16; that for A6U U39C, 0.84. For U9C C98U, the self-cleavage was determined as 0.59. Turning to A6U C63G, the self-cleavage amounted to 0.19. The value for G7U A64G was 0.35. The result for A6U U100C reads 0.76; that for A6U U100A, 0.52. On to U9A A138U, for which the self-cleavage was determined as 1.01. The result for A6U A65U reads 0.33; that for A6U A65G, 0.26; that for G7A A129G, 1.85. The value for G7A A129C was 1.07; that for G8C U81C was 1.08.

As to U9A C103U, the self-cleavage amounted to 0.84. With U9C C18U, the self-cleavage came out at 1. For the variant G8A U12C, the self-cleavage was determined as 1.17. The result for U9A C110U reads 1.06; that for A6U, 0.99; that for G8A A79G, 1.36. The result for G7U A78G reads 0.88; that for U9A A129G, 1.24; that for U9A A129C, 1.22. Regarding U9A G144A, the self-cleavage stood at 1.19.

In the case of G8U U14C, the self-cleavage was 2.04. The result for A6U U91C reads 0.52. The value for G7A U20A was 0.96. The result for G8U A42U reads 1.17. For U9C C51A, the self-cleavage was 0.63. In the case of U9C C118U, the self-cleavage turned out to be 0.92. In the case of G8C A22G, the self-cleavage is 0. The result for G8A U47C reads 1.82; that for A6G U26C, 0.9; that for A6U U52A, 1. U9C C90G: the self-cleavage amounted to 0.09. The value for U9C C90U was 0.09. Regarding U9C G10A, the self-cleavage was determined as 0.86.

On to U9C C131U, for which the self-cleavage was found to be 1.6. The value for G7A U134C was 1.17. The result for G7A A78G reads 1.12; that for U9A G97A, 0.12; that for G8A U9C, 0.63. The value for U9A U87C was 0.19; that for U9A U87A was 0.15; that for A6U U20C was 1.19.

With A6U U20A, the self-cleavage was 1.21. On to U9A A140U, for which the self-cleavage was 1.08. The value for G7C U91C was 0; that for U9A G70A was 0.12; that for G7U A77U was 1.04. The result for G7A G97A reads 0.1. The value for G8A A57U was 0.16; that for G8U U81A was 2.37; that for G7A U109A was 1.49. In the case of U9C A129C, the self-cleavage is 1.24. The value for U9C A129U was 1.27; that for U9C A129G was 1.66; that for G8U U39A was 1.12.
